Data on 3 molecules can be found in article PMC2592702 (PLoS ONE, 2008).

For assay [1], the target named is T1, N-terminally truncated recombinant mouse PrP, residues 121–231 (rmPrP_(121-231)) (Mus musculus, UniProt P04925). Put plainly: SPR; […]; antibody 420 pM–110 nM in HBS-EP at 20 µl/min, 20 min dissociation, […]. As to conditions: both partners purified. On the technique in general: In SPR one partner is held on a chip, and binding of the other changes the refractive index at the surface.
T1 sequence (P04925 whole entry, looked up, the tested form may be a part): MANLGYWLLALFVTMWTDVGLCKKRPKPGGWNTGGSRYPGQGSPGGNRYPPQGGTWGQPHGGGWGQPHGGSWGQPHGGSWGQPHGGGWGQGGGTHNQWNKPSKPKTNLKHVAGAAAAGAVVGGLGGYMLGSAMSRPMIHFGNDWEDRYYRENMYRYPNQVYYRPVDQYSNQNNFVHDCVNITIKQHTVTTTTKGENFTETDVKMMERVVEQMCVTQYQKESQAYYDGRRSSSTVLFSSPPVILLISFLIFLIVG

Assay [2] addresses T2, POM2 epitope-mimicking peptide of the competition BIAcore experiment (Mus musculus).
T2 chain: QPHGGGW
As to the kind of experiment: SPR; […] (100–[…]), 1 h at room temperature; […]; HBS-EP. As to conditions: both partners purified.

Assay [3] addresses T1, N-terminally truncated recombinant …. As to the kind of experiment: ELISA. In general terms: An ELISA detects its analyte on a solid surface through an enzyme-linked reagent.

B1: POM19 monoclonal antibody (antibody, V domains shown)
VH: EVKLMESGAELMKPGGSVKISCKATGYTFYSYWIEWIKRRPGHGLEWIGEILPGTGDTKYSEKFKGRATFTADPSSNTAYMQLSSLTSEDSAVYYCTRLIYYRYDDYALDYWGQGTSVTVSS
VL: DIVMTQSPAVMSASPGEKVTMTCSASSSISYMHWYQQKPGTSPKRWIFDTSKLASGVPARFSGSGSGTSYSPTISSMEAEDAATYFCHQRIIYPTFGGGTKLEMK
Regarding B1, the Kd (as a rule, the constant that tells how readily two partners part at equilibrium) in assay [1] is 0.87 nM.

B2: POM2 scFv, purified and refolded (scFv, V domains shown)
VH: EVKLQESGGEVVRPGTSVKVSCKASGYAFTNYLIEWVKQRPGQGLEWIGVINPGSGDTNYNEKFKGKATLTADKSSSTAYMQLNSLTSDDSAVYFCARSGVAAPYYYAMDYWGQGTSVTVSS
VL: DIVMTQSHKFMSTSVGDRVSITCKASQDVGTALAWYQQKPGQSPKLLIYWASTRHTGVPDRFTGSGSGTDFTLTISNVQSEDLSDYFCQQYSSYPTFGGGTKLEIK
In assay [2], B2 returned a Kd of 20 nM.

B3: POM11 monoclonal antibody (antibody, V domains shown)
VH: DVMLVESGPELEKPGASVRISCKASGYSFTGYNMDWVKQNNGKSLEWIGSIDPYYGGTSYNQSFKDKATLTVDKSSGTAYMQLKSLTSDDSAVYYCARGGVGPYYYALDYWGQGTSVTVSS
VL: DIVLTQSHKFMSTSVGDRVSITCKASQDVGSAVAWYQQKPGQSPKLLIYWSSTRHTGVPDRFTGSGSGTDFTLTISNVQSEDLADYFCHQYNSSPTFGRGTKLELK
On to B3, for which, in assay [3], the binding result is given as “no binding”.
